Measured values as given in patent US6541450B1, “Parathyroid hormone analogues for the treatment of osteoporosis” (National Research Council of Canada, priority 1994, dated 2003).
“Also recorded” adds a separate entry of the source. Where a SMILES comes first, the peptide text is derived from it. Bridges are numbered along the chain shown (N, C = ends). Where no end group is shown, it is not given here. [ ]: non-standard residue; d: D form. Nle = CCCC[C@H](N)C(=O)O

B1: [Ile^27]cyclo(Glu^22-Lys^26)-hPTH-(1-31)-NH2 (peptide)
peptide: SVSEIQLMHNLGKHLNSMERVEWLRKILQDV-NH2
modifications: lactam 22-26; N-terminus assumed
SMILES: CC[C@H](C)[C@H](NC(=O)[C@@H]1CCCCNC(=O)CC[C@H](NC(=O)[C@@H](NC(=O)[C@H](CCCNC(=N)N)NC(=O)[C@H](CCC(=O)O)NC(=O)[C@H](CCSC)NC(=O)[C@H](CO)NC(=O)[C@H](CC(N)=O)NC(=O)[C@H](CC(C)C)NC(=O)[C@H](Cc2c[nH]cn2)NC(=O)[C@H](CCCCN)NC(=O)CNC(=O)[C@H](CC(C)C)NC(=O)[C@H](CC(N)=O)NC(=O)[C@H](Cc2c[nH]cn2)NC(=O)[C@H](CCSC)NC(=O)[C@H](CC(C)C)NC(=O)[C@H](CCC(N)=O)NC(=O)[C@@H](NC(=O)[C@H](CCC(=O)O)NC(=O)[C@H](CO)NC(=O)[C@@H](NC(=O)[C@@H](N)CO)C(C)C)[C@@H](C)CC)C(C)C)C(=O)N[C@@H](Cc2c[nH]c3ccccc23)C(=O)N[C@@H](CC(C)C)C(=O)N[C@@H](CCCNC(=N)N)C(=O)N1)C(=O)N[C@@H](CC(C)C)C(=O)N[C@@H](CCC(N)=O)C(=O)N[C@@H](CC(=O)O)C(=O)N[C@H](C(N)=O)C(C)C
B2: α-acetyl-[Leu^27]cyclo(Glu^22-Lys^26)-hPTH-(1-31)-NH2 (peptide)
peptide: Ac-SVSEIQLMHNLGKHLNSMERVEWLRKLLQDV-NH2
modifications: lactam 22-26
SMILES: CC[C@H](C)[C@H](NC(=O)[C@H](CCC(=O)O)NC(=O)[C@H](CO)NC(=O)[C@@H](NC(=O)[C@H](CO)NC(C)=O)C(C)C)C(=O)N[C@@H](CCC(N)=O)C(=O)N[C@@H](CC(C)C)C(=O)N[C@@H](CCSC)C(=O)N[C@@H](Cc1c[nH]cn1)C(=O)N[C@@H](CC(N)=O)C(=O)N[C@@H](CC(C)C)C(=O)NCC(=O)N[C@@H](CCCCN)C(=O)N[C@@H](Cc1c[nH]cn1)C(=O)N[C@@H](CC(C)C)C(=O)N[C@@H](CC(N)=O)C(=O)N[C@@H](CO)C(=O)N[C@@H](CCSC)C(=O)N[C@@H](CCC(=O)O)C(=O)N[C@@H](CCCNC(=N)N)C(=O)N[C@H](C(=O)N[C@H]1CCC(=O)NCCCC[C@@H](C(=O)N[C@@H](CC(C)C)C(=O)N[C@@H](CC(C)C)C(=O)N[C@@H](CCC(N)=O)C(=O)N[C@@H](CC(=O)O)C(=O)N[C@H](C(N)=O)C(C)C)NC(=O)[C@H](CCCNC(=N)N)NC(=O)[C@H](CC(C)C)NC(=O)[C@H](Cc2c[nH]c3ccccc23)NC1=O)C(C)C
B3: [Nle^27]cyclo(Glu^22-Lys^26)-hPTH-(1-31)-NH2 (peptide)
peptide: SVSEIQLMHNLGKHLNSMERVEWLRK[Nle]LQDV-NH2
modifications: lactam 22-26; N-terminus assumed
SMILES: CCCC[C@H](NC(=O)[C@@H]1CCCCNC(=O)CC[C@H](NC(=O)[C@@H](NC(=O)[C@H](CCCNC(=N)N)NC(=O)[C@H](CCC(=O)O)NC(=O)[C@H](CCSC)NC(=O)[C@H](CO)NC(=O)[C@H](CC(N)=O)NC(=O)[C@H](CC(C)C)NC(=O)[C@H](Cc2c[nH]cn2)NC(=O)[C@H](CCCCN)NC(=O)CNC(=O)[C@H](CC(C)C)NC(=O)[C@H](CC(N)=O)NC(=O)[C@H](Cc2c[nH]cn2)NC(=O)[C@H](CCSC)NC(=O)[C@H](CC(C)C)NC(=O)[C@H](CCC(N)=O)NC(=O)[C@@H](NC(=O)[C@H](CCC(=O)O)NC(=O)[C@H](CO)NC(=O)[C@@H](NC(=O)[C@@H](N)CO)C(C)C)[C@@H](C)CC)C(C)C)C(=O)N[C@@H](Cc2c[nH]c3ccccc23)C(=O)N[C@@H](CC(C)C)C(=O)N[C@@H](CCCNC(=N)N)C(=O)N1)C(=O)N[C@@H](CC(C)C)C(=O)N[C@@H](CCC(N)=O)C(=O)N[C@@H](CC(=O)O)C(=O)N[C@H](C(N)=O)C(C)C
B4: [Tyr^27]cyclo(Glu^22-Lys^26)-hPTH-(1-31)-NH2 (peptide)
peptide: SVSEIQLMHNLGKHLNSMERVEWLRKYLQDV-NH2
modifications: lactam 22-26; N-terminus assumed
SMILES: CC[C@H](C)[C@H](NC(=O)[C@H](CCC(=O)O)NC(=O)[C@H](CO)NC(=O)[C@@H](NC(=O)[C@@H](N)CO)C(C)C)C(=O)N[C@@H](CCC(N)=O)C(=O)N[C@@H](CC(C)C)C(=O)N[C@@H](CCSC)C(=O)N[C@@H](Cc1c[nH]cn1)C(=O)N[C@@H](CC(N)=O)C(=O)N[C@@H](CC(C)C)C(=O)NCC(=O)N[C@@H](CCCCN)C(=O)N[C@@H](Cc1c[nH]cn1)C(=O)N[C@@H](CC(C)C)C(=O)N[C@@H](CC(N)=O)C(=O)N[C@@H](CO)C(=O)N[C@@H](CCSC)C(=O)N[C@@H](CCC(=O)O)C(=O)N[C@@H](CCCNC(=N)N)C(=O)N[C@H](C(=O)N[C@H]1CCC(=O)NCCCC[C@@H](C(=O)N[C@@H](Cc2ccc(O)cc2)C(=O)N[C@@H](CC(C)C)C(=O)N[C@@H](CCC(N)=O)C(=O)N[C@@H](CC(=O)O)C(=O)N[C@H](C(N)=O)C(C)C)NC(=O)[C@H](CCCNC(=N)N)NC(=O)[C@H](CC(C)C)NC(=O)[C@H](Cc2c[nH]c3ccccc23)NC1=O)C(C)C
B5: [Ala^27]cyclo(Glu^22-Lys^26)-hPTH-(1-31)-NH2 (peptide)
peptide: SVSEIQLMHNLGKHLNSMERVEWLRKALQDV-NH2
modifications: lactam 22-26; N-terminus assumed
SMILES: CC[C@H](C)[C@H](NC(=O)[C@H](CCC(=O)O)NC(=O)[C@H](CO)NC(=O)[C@@H](NC(=O)[C@@H](N)CO)C(C)C)C(=O)N[C@@H](CCC(N)=O)C(=O)N[C@@H](CC(C)C)C(=O)N[C@@H](CCSC)C(=O)N[C@@H](Cc1c[nH]cn1)C(=O)N[C@@H](CC(N)=O)C(=O)N[C@@H](CC(C)C)C(=O)NCC(=O)N[C@@H](CCCCN)C(=O)N[C@@H](Cc1c[nH]cn1)C(=O)N[C@@H](CC(C)C)C(=O)N[C@@H](CC(N)=O)C(=O)N[C@@H](CO)C(=O)N[C@@H](CCSC)C(=O)N[C@@H](CCC(=O)O)C(=O)N[C@@H](CCCNC(=N)N)C(=O)N[C@H](C(=O)N[C@H]1CCC(=O)NCCCC[C@@H](C(=O)N[C@@H](C)C(=O)N[C@@H](CC(C)C)C(=O)N[C@@H](CCC(N)=O)C(=O)N[C@@H](CC(=O)O)C(=O)N[C@H](C(N)=O)C(C)C)NC(=O)[C@H](CCCNC(=N)N)NC(=O)[C@H](CC(C)C)NC(=O)[C@H](Cc2c[nH]c3ccccc23)NC1=O)C(C)C
B6: cyclo(Glu^22-Lys^26)-hPTH-(1-31)-NH2 (peptide)
peptide: SVSEIQLMHNLGKHLNSMERVEWLRKKLQDV-NH2
modifications: lactam 22-26; N-terminus assumed
SMILES: CC[C@H](C)[C@H](NC(=O)[C@H](CCC(=O)O)NC(=O)[C@H](CO)NC(=O)[C@@H](NC(=O)[C@@H](N)CO)C(C)C)C(=O)N[C@@H](CCC(N)=O)C(=O)N[C@@H](CC(C)C)C(=O)N[C@@H](CCSC)C(=O)N[C@@H](Cc1c[nH]cn1)C(=O)N[C@@H](CC(N)=O)C(=O)N[C@@H](CC(C)C)C(=O)NCC(=O)N[C@@H](CCCCN)C(=O)N[C@@H](Cc1c[nH]cn1)C(=O)N[C@@H](CC(C)C)C(=O)N[C@@H](CC(N)=O)C(=O)N[C@@H](CO)C(=O)N[C@@H](CCSC)C(=O)N[C@@H](CCC(=O)O)C(=O)N[C@@H](CCCNC(=N)N)C(=O)N[C@H](C(=O)N[C@H]1CCC(=O)NCCCC[C@@H](C(=O)N[C@@H](CCCCN)C(=O)N[C@@H](CC(C)C)C(=O)N[C@@H](CCC(N)=O)C(=O)N[C@@H](CC(=O)O)C(=O)N[C@H](C(N)=O)C(C)C)NC(=O)[C@H](CCCNC(=N)N)NC(=O)[C@H](CC(C)C)NC(=O)[C@H](Cc2c[nH]c3ccccc23)NC1=O)C(C)C
B7: [Nle^8,18, Leu^27]cyclo(Glu^22-Lys^26)-hPTH-(1-31)-NH2 (peptide)
peptide: SVSEIQL[Nle]HNLGKHLNS[Nle]ERVEWLRKLLQDV-NH2
modifications: lactam 22-26; N-terminus assumed
SMILES: CCCC[C@H](NC(=O)[C@H](CO)NC(=O)[C@H](CC(N)=O)NC(=O)[C@H](CC(C)C)NC(=O)[C@H](Cc1c[nH]cn1)NC(=O)[C@H](CCCCN)NC(=O)CNC(=O)[C@H](CC(C)C)NC(=O)[C@H](CC(N)=O)NC(=O)[C@H](Cc1c[nH]cn1)NC(=O)[C@H](CCCC)NC(=O)[C@H](CC(C)C)NC(=O)[C@H](CCC(N)=O)NC(=O)[C@@H](NC(=O)[C@H](CCC(=O)O)NC(=O)[C@H](CO)NC(=O)[C@@H](NC(=O)[C@@H](N)CO)C(C)C)[C@@H](C)CC)C(=O)N[C@@H](CCC(=O)O)C(=O)N[C@@H](CCCNC(=N)N)C(=O)N[C@H](C(=O)N[C@H]1CCC(=O)NCCCC[C@@H](C(=O)N[C@@H](CC(C)C)C(=O)N[C@@H](CC(C)C)C(=O)N[C@@H](CCC(N)=O)C(=O)N[C@@H](CC(=O)O)C(=O)N[C@H](C(N)=O)C(C)C)NC(=O)[C@H](CCCNC(=N)N)NC(=O)[C@H](CC(C)C)NC(=O)[C@H](Cc2c[nH]c3ccccc23)NC1=O)C(C)C

Legend:
[1] = tested on: anesthetized female Sprague-Dawley rats; test: Hypotensive effect, tail artery pressure in anaesthetized rats
Procedure: Female Sprague-Dawley rats (weighing over 290 g) were anaesthetized with intraperitoneally injected sodium pentobarbital (65 mg/kg body weight). Rectal temperature was monitored with a YS1402 thermistor (Yellow Springs Instrument Co., Inc. Yellow Springs, Ohio) and maintained between 36.0 and 38.5° C. throughout the experiment. Ear pinna temperature was also monitored using a YSi banjo thermistor. The tail artery was exposed to cannulated with a Jelco 25-gIV catheter (Johnson and Johnson Medical Inc., Arlington, Tex.) and connected to a Statham pressure transducer, the signals from which were recorded digitally with a Biopac Systems MP100 Monitor (Harvard Instruments, Saint Laurent, QC, Canada). For intravenous injection of PTH or one of its fragments, a femoral vein was also exposed. After surgery, the rat was allowed to stabilize for 8 min after which PTH or one of its fragments (dissolved in acidified saline containing 0.001 N HCl) was injected into the femoral vein or under the skin of the abdomen. Data were collected for 12 min after intravenous injection or for 22 min after subcutaneous injection.

PTH receptor = PTH receptor (rat (ROS 17/2 rat osteosarcoma cell …, UniProt P25961)); test: cell-based or functional assay
[2] = intravenous, 0.8 nmol/100 g of body weight

Molecule	Adenylyl Cyclase (EC50) (PTH receptor) [nM]	other results
hPTH-(7-84) [reference compound]	–	hypotensive action, in words ([1]; intravenous injection): not significantly hypotensive; also recorded: did not significantly affect tail artery pressure; reduction of tail artery pressure [1, 2]: 3.28±1.0 mm Hg; time to maximum drop in tail artery pressure [1, 2]: 9.8 ± 2.0 min
CC[C@H](C)[C@H](NC(=O)[C@H](CCC(=O)O)NC(=O)[C@H](CO)NC(=O)[C@@H](NC(=O)[C@@H](N)CO)C(C)C)C(=O)N[C@@H](CCC(N)=O)C(=O)N[C@@H](CC(C)C)C(=O)N[C@@H](CCSC)C(=O)N[C@@H](Cc1c[nH]cn1)C(=O)N[C@@H](CC(N)=O)C(=O)N[C@@H](CC(C)C)C(=O)NCC(=O)N[C@@H](CCCCN)C(=O)N[C@@H](Cc1c[nH]cn1)C(=O)N[C@@H](CC(C)C)C(=O)N[C@@H](CC(N)=O)C(=O)N[C@@H](CO)C(=O)N[C@@H](CCSC)C(=O)N[C@@H](CCC(=O)O)C(=O)N[C@@H](CCCNC(=N)N)C(=O)N[C@H](C(=O)N[C@H]1CCC(=O)NCCCC[C@@H](C(=O)N[C@@H](CC(C)C)C(=O)N[C@@H](CC(C)C)C(=O)N[C@@H](CCC(N)=O)C(=O)N[C@@H](CC(=O)O)C(N)=O)NC(=O)[C@H](CCCNC(=N)N)NC(=O)[C@H](CC(C)C)NC(=O)[C@H](Cc2c[nH]c3ccccc23)NC1=O)C(C)C [compound 8, [Leu^27]cyclo(Glu^22Lys^26)-hPTH-(1-30)-NH2] (H-SVSEIQLMHNLGKHLNSMERVEWLRKLLQD-NH2; lactam 22-26)	–	total blood pressure drop versus other analogues ([1]; subcutaneously or intravenously, 0.8 nmol/100 g of body weight): not significantly different (p>0.05)
B1	9	–
B2	24	–
B3	9	–
B4	9	–
B5	9	–
SVSEIQLMHNLGKHLNSMERVEWLRKKLQDV-NH2 [hPTH-(1-31)-NH2]	20	–
B6	17	–
B7	6	–
